Data as given in article PMC7810697, “Sarcolipin alters SERCA1a interdomain communication by impairing binding of both calcium and ATP” (Scientific Reports, 2021).
Ends that are not written are not given here. * marks the point of attachment. Palmitoyl = CCCCCCCCCCCCCCCC(=O)*

What was measured:
[1] = molecular target: T1, DDM-solubilized SR (native SERCA1a) (Oryctolagus cuniculus, UniProt P04191); experiment: Effect of SLN:SERCA1a stoichiometry on phosphorylated intermediate, DDM-solubilized SR; format: biochemical, rabbit; conditions: for EPmax (stoichiometry series), DDM-solubilized SR / decrease of the EP level, DDM-solubilized native SERCA1a (discussion): Fig. 4G; for amplitude of the inhibition of phosphoenzyme level, DDM-solubilized SR: SR without added SLN = 100%; for amplitude of the inhibition of phosphoenzyme level, DDM-solubilized SR / SLN:SERCA1a ratio for half-inhibition, DDM-solubilized SR (Fig. 4H): mean of three independent experiments; for SLN:SERCA1a ratio for half-inhibition, DDM-solubilized SR (Fig. 4H): phosphoenzyme after 20 s, p = 0.047 pSLN vs SLN
T1 construct: DDM-solubilized native SERCA1a purification; from tissue; host or cells: rabbit skeletal muscle sarcoplasmic reticulum
T1 sequence (P04191 1-994 isoform P04191-2): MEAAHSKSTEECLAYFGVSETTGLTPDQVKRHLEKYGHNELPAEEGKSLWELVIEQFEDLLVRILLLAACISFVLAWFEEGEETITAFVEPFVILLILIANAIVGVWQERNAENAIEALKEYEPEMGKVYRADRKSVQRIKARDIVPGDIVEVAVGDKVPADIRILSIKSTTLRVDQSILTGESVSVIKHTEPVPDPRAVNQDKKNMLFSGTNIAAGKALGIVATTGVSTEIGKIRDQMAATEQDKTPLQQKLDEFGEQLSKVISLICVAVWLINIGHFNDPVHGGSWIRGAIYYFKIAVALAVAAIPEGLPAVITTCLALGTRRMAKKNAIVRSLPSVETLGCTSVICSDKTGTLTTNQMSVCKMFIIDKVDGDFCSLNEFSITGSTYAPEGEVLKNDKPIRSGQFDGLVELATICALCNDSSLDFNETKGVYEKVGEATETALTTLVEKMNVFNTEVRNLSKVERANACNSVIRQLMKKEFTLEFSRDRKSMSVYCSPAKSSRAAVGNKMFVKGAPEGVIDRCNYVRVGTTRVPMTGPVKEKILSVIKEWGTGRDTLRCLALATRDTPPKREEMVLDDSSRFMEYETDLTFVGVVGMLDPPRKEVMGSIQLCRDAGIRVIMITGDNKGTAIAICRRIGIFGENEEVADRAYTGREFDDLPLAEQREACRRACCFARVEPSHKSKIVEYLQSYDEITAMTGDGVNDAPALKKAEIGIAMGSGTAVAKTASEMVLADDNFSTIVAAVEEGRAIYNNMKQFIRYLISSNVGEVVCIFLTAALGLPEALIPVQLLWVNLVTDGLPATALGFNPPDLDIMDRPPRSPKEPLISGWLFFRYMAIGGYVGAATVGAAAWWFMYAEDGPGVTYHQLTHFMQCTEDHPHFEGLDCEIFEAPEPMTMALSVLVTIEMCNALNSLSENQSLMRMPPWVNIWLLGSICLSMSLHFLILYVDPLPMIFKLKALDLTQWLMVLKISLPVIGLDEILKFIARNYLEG
Procedure: Transient formation of the phosphoenzyme intermediate was measured after incubation with [γ^32P]ATP followed by acid quenching, and filtration. For most experiments, 50 µL of enzyme at 10 µg/mL in a buffer containing 50 mM Tes-Tris pH7.5, 1 mM KCl, 5 mM MgCl2, 20% glycerol (w/w) and 0.5 mg/mL DDM, supplemented or not with SLN, was stored on ice. Concentrations of EGTA and calcium are specified in figure legends in order to reach the appropriate [Ca^2+]free and therefore the desired starting state for the ATPase. For kinetics of phosphorylation, we initiate reaction by addition of 2 µM [γ^32P]ATP (5 mCi/µmole), and calcium at 100 µM when specified. Reaction was quenched by addition of 2 mL of cold quenching medium (500 mM TCA + 30 mM H3P0_4) under vigorous mixing, and immediately stored on ice for 20–30 min to improve precipitation, a period of time critical for retention of the precipitate on the filter in presence of detergent. This was followed by filtration on GS filters (Millipore, Saint Quentin-Fallavier, France) and careful rinsing of the filters with diluted quenching medium (50 mM TCA + 3 mM H3P0_4). The amount of radioactivity bound to the filter was estimated by liquid scintillation counting (Perkin Elmer TriCarb Counter). When starting from a calcium-deprived state (Fig. 4C,D), EGTA was added only one minute before starting phosphorylation to limit irreversible inactivation of the solubilized ATPase, although the presence of glycerol helps in protecting the enzyme from irreversible inactivation. For dephosphorylation kinetics, 1 mM “cold” Mg.ATP was added after a 30 s period of phosphorylation. For Ca^2+-dependency, we adjust the concentration of free calcium according to the Ca.EGTA constant as mentioned above, before triggering phosphorylation. […] Phosphorylations were done at 0 °C especially for inhibition by vanadate to prevent dissociation of vanadate and limit irreversible inactivation in absence of calcium. […]
resuspended in a large volume of pure water and lyophilized to evaporate most of the TFA. The rinsed powder was then suspended in presence of 10 mM HCl to exchange the anionic residual TFA that may interact with the positive charges of the peptide for chloride. This suspension was lyophilized again.
Three additional cycles of – dissolving in pure water / lyophilisation – will allow to eliminate traces of TFA and to get back to a pH compatible with functional tests. For final solubilisation of SLN in detergent, powder was then dissolved in 50% TFE and an amount of detergent to reach a 100:1 mole:mole detergent:SLN ratio. Here, we used C12E8 as it is fully compatible with functional characterization of SERCA1a 23. This suspension was then lyophilized again to evaporate TFE.
Sarcolipins (Palm-SLN or SLN) were finally resuspended at 0.8 mg/mL (about 200 µM) in a 10 mM potassium phosphate buffer pH 7.4, in the presence of 2.5 mg/mL C12E8. […]
DDM-solubilized native SERCA1a purification
SR vesicles were suspended at a concentration of 1 mg/mL in a buffer containing 50 mM MOPS-Tris pH7, 100 mM KCl, 5 mM MgCl2, 0.1 mM CaCl2, 20 % glycerol (v/v) and 10 mg/mL DDM (detergent:protein ratio 10:1 w/w), and incubated for 10 minutes at 20°C. Solubilized material was recovered after centrifugation for 10 minutes at 120,000 x g on a TLA100.3 rotor (Beckman Coulter TL100 ultracentrifuge). Supernatant was injected on a size exclusion chromatography column (Superdex 200 10/300 GL on an Akta Purifier FPLC system, GE Healthcare) equilibrated with the same buffer but now containing only 0.5 mg/mL DDM. Chromatography was performed at 4°C and at a flow rate of 0.5 mL/min. Fractions corresponding to the main peak were collected, pooled and stored at - 80°C. For further details, see 32.
Steady-state ATPase activity measurements
Measurements were performed using classical enzyme coupled assay. We measured the rate of NADH oxidation in the presence of 0.1 mg/mL lactate deshydrogenase, 0.05 mg/mL pyruvate kinase, 1 mM […]

[2] = molecular target: T2, recombinant SERCA1a (recS1a) (Oryctolagus cuniculus, UniProt P04191); experiment: Kinetics of phosphorylation from [γ32P]ATP, recS1a; format: biochemical, rabbit (expressed in S. cerevisiae); conditions: for EPmax, from calcium deprived state: Fig. 4C, mean of six (pSLN), four (SLN) replicates, recS1a alone 3.09 ± 0.10; for t1/2 of phosphorylation, from calcium deprived state: EGTA 1 min then 2 µM [γ32P]ATP and calcium, six (pSLN) or four (SLN) replicates from two independent experiments, recS1a alone 6.8, p < 0.0001; for rate of phosphorylation, from calcium deprived state: recS1a, starting from calcium-deprived state, Fig. 4C,D
T2 construct: BAD (biotin acceptor domain) (C, cleaved yes); made in house; host or cells: Saccharomyces cerevisiae
T2 sequence (P04191 1-994 isoform P04191-2): as above
Procedure: (§1) Transient formation of the phosphoenzyme intermediate was measured after incubation with [γ^32P]ATP followed by acid quenching, and filtration. For most experiments, 50 µL of enzyme at 10 µg/mL in a buffer containing 50 mM Tes-Tris pH7.5, 1 mM KCl, 5 mM MgCl2, 20% glycerol (w/w) and 0.5 mg/mL DDM, supplemented or not with SLN, was stored on ice. Concentrations of EGTA and calcium are specified in figure legends in order to reach the appropriate [Ca^2+]free and therefore the desired starting state for the ATPase. For kinetics of phosphorylation, we initiate reaction by addition of 2 µM [γ^32P]ATP (5 mCi/µmole), and calcium at 100 µM when specified. Reaction was quenched by addition of 2 mL of cold quenching medium (500 mM TCA + 30 mM H3P0_4) under vigorous mixing, and immediately stored on ice for 20–30 min to improve precipitation, a period of time critical for retention of the precipitate on the filter in presence of detergent. This was followed by filtration on GS filters (Millipore, Saint Quentin-Fallavier, France) and careful rinsing of the filters with diluted quenching medium (50 mM TCA + 3 mM H3P0_4). The amount of radioactivity bound to the filter was estimated by liquid scintillation counting (Perkin Elmer TriCarb Counter). When starting from a calcium-deprived state (Fig. 4C,D), EGTA was added only one minute before starting phosphorylation to limit irreversible inactivation of the solubilized ATPase, although the presence of glycerol helps in protecting the enzyme from irreversible inactivation. For dephosphorylation kinetics, 1 mM “cold” Mg.ATP was added after a 30 s period of phosphorylation. For Ca^2+-dependency, we adjust the concentration of free calcium according to the Ca.EGTA constant as mentioned above, before triggering phosphorylation. […] Phosphorylations were done at 0 °C especially for inhibition by vanadate to prevent dissociation of vanadate and limit irreversible inactivation in absence of calcium.

[3] = molecular target: T2, recombinant SERCA1a (recS1a); experiment: Turnover-dependent dephosphorylation kinetics; format: biochemical, rabbit (expressed in S. cerevisiae); conditions: for effect on rate of dephosphorylation: after addition of non-radioactive ATP
Procedure: as §1

pSLN: chemically synthesized S-palmitoylated rabbit sarcolipin, 31-residue single-spanning membrane peptide, palmitoylated on Cys9 (MERSTRELC(Palmitoyl)LNFTVVLITVILIWLLVRSYQY; UniProt P42532 1-31, looked up)
EPmax (stoichiometry series), DDM-solubilized SR [1]: 4.00 ± 0.14 nmoles EP/mg ATPase
decrease of the EP level, DDM-solubilized native SERCA1a (discussion) [1]: about 30%
amplitude of the inhibition of phosphoenzyme level, DDM-solubilized SR [1]: 28.1 ± 1.2%
SLN:SERCA1a ratio for half-inhibition, DDM-solubilized SR (Fig. 4H) [1]: 5.9 ± 0.6 mol SLN added per mole of SERCA1a
EPmax, from calcium bound state ([2]; SLN:SERCA1a 10:1, Fig. 4A, average of four replicates from two independent experiments, recS1a alone 3.37 ± 0.35): 3.23 ± 0.37 nmoles EP/mg ATPase
EPmax, from calcium deprived state ([2]; SLN:SERCA1a 10:1): 3.10 ± 0.09 nmoles EP/mg ATPase
t1/2 of phosphorylation, from calcium bound state (Ca2.E1) ([2]; SLN:SERCA1a 10:1 mol:mol, 2 µM [γ32P]ATP, four replicates from two independent experiments, recS1a alone 5.7, p = 0.45): 5.1 s
t1/2 of phosphorylation, from calcium deprived state ([2]; SLN:SERCA1a 10:1 mol:mol): 13.5 s
rate of phosphorylation, from calcium bound state ([2]; recS1a in absence or presence of pSLN, starting from Ca2.E1): the same
rate of phosphorylation, from calcium deprived state [2]: significantly lower
effect on rate of dephosphorylation [3]: No effect
t1/2 of dephosphorylation ([3]; pSLN:SERCA1a 10:1 mol:mol, 1 mM cold Mg.ATP after 30 s phosphorylation, three replicates from two independent experiments, recS1a alone 2.4 +/- 0.4, p=0.064): 2.8 ± 0.6 s

SLN: chemically synthesized non-palmitoylated rabbit sarcolipin; in cited literature results sarcolipin in general (MERSTRELCLNFTVVLITVILIWLLVRSYQY; UniProt P42532 1-31, looked up)
EPmax (stoichiometry series), DDM-solubilized SR [1]: 3.94 ± 0.12 nmoles EP/mg ATPase
decrease of the EP level, DDM-solubilized native SERCA1a (discussion) [1]: about 20%
amplitude of the inhibition of phosphoenzyme level, DDM-solubilized SR [1]: 19.0 ± 0.7%
SLN:SERCA1a ratio for half-inhibition, DDM-solubilized SR (Fig. 4H) [1]: 3.1 ± 0.3 mol SLN added per mole of SERCA1a
EPmax, from calcium deprived state ([2]; SLN:SERCA1a 10:1): 3.15 ± 0.05 nmoles EP/mg ATPase
t1/2 of phosphorylation, from calcium deprived state ([2]; SLN:SERCA1a 10:1 mol:mol): 13.7 s
rate of phosphorylation, from calcium deprived state [2]: significantly lower
effect on rate of dephosphorylation [3]: No effect
